Measured values as given in the DeepSol protein solubility set.

Assay: soluble on expression in E. coli; label from the status in PepcDB or PDB records

Sequence | soluble on expression in E. coli
MGSDKIHHHHHHELVIDITRGVREPMPIAIPVFGGTDAQSSAMGRDVVGVVSNDLQGSGLFRVLDPAAYIQSLPNLAVQPQFADWRAINAQALVQGEVQPQGDGRLRVAFRLWDVFSGQQVVGRAFLTQGDNWRRVSHIIADEIYKAITGEEGYFDTRVVYVAETGPKTNRVKKLAIMDQDGANQRNLTNGESMVLTPRFSPTAQEITYLSYYNSVPRVYLFNIETGRRELLGDFPGMTFAPRFSPDGNKVIMSMALDGNTEIYEMDLRTRRSSRLTNHPSIDTSPSYAPDGRQITFNSDRGGAQQIYVMNADGSGVQRISFGDGRYATPVWSPRGDLIAFTKLKGGRFFIGAMRPDGSGEKILTEGFLVEGPTWAPNGRVLMFFRQDPNGRTTLHSIDVTGYNERQISTPTEASDPAWSPLLP | not soluble
MGSDKIHHHHHHVNGLPLVELSGDAYTQGWQHGRALREAIAANLRIYMTRFERELRIPPDEVWRRALRYAAVIAEQNQDYAAGMRGIAEGAGVDLAAIAALNVRYELFYQFFREYERGTGKPDGCTAFALLPSETDNGHLLVGENWDWIQGVRGAILRTIAPDGLRTLAFTEAGIFGGKIGLNAAGLALLINGLSSTGDDWASLRRPFHVRCYEILQARSLTEAQAVITSEERAGSANFLLAQVPDRVVNIEAAPAALAISGCTNGCLVHANHFTDPAALGIVERQIERYPHSYWRQERLRSLLASRPQSLAQVQAALRDHEQFPYSVCFHIDPADPPDEYYETVASVIMDVTAGVLYATDGPPCEHAYVRYELEVAR | not soluble
MHQFTSKQDFCHWFNQFQHPQLVENWADIHGVVTITAQGEVKITLPFASNELQRTLQEWIQQQQAFKAVAAFPYHIELGVKALETQVSNAVKGVKNIIAVSSAKGGVGKSTTAVNLALAIAQSGAKVGLLDADIYGPSVPMMLGQEDAKPEVRDGKWMEPIFAHGIYTHSIGYLVNKSEAAIWRGPMASKALAQLLNETDWPELDYLVIDMPPGTGDIQLTLSQQIPVTGTVLVTTPQDLALADARKGAAMFNKVNVPVVGVVENMSYHICSQCGATEHIFGMGGAEKMSQEFGLALLGQIPLHISMREDIDAGVPTVVRRPDSEHSGYYKQLADRVCSTMFWQGKAKPDAISFTMVNLEHHHHHH | not soluble
MGSDKIHHHHHHMIIAGAVPIKGMELIKGPVKLNKDTFEIKNKELPISMGTCALLGAAFKTLEYFGKEDELTFITAGDVGEGDGSLEIYEELHEINDDLTIIHYIKPKISEIIKVDFSKNVIGDAGGMYAGKAAGIGNKFHMFFPDVGELAFLADENSSHPAYVRGFISEIDDQEIPKLIKMAYTQKMPKNMVVKGSKDHIVNEGNIIETVEYPKFEAMECIGGTGDTLTGIASSLIACGFKTEKAGILGCKLNRKLGELVKPRPDTQIYEIIQKIPEALKEFDL | not soluble
MGSDKIHHHHHHMTQSFIVDEAFWQLFPEVEIAFLTAQDIDNHAKEQVPTDLLTTANHVAATKWVPNDPISQNTVVQDWRQAFQQFKTKKGARCAVENLLKRAKNGKGVGTINPVVDVYNSVSLEWAFPVAAEDMDQIKGDIHLTVAQGGERFRPIGEDDVETALPGEVIYRDAYDVISRCWAWRDSARVEATEATQNLLFYMENVNPQRHADHVAATAALRTRLHDYLGISTTLHVVTHDQPSVAFKD | not soluble
MTTRILTGITPTGTPHLGNYAGAIRPAILASRRSDVDSFYFLADYHALIKCDDPARIQRSRLEIAATWLAGGLDVERATFYRQSDIPEIPELTWLLTCVSAKGLLNRAHAYKAAVDRNVEAGEDPDAGVTMGLYSYPVLMAADILMFNAHKIPVGRDQVQHVEMARDIGQRFNHLFGNGREFFVLPEAVIEENVATLPGLDGRKMSKSYDNTIPLFSPSRQLKDAIARIVTDSRAPGEPKDPDSSHLFLLYSAFASAEQVAAFRQELLEGLAWGEAKQRLFQLLDNELGEARERYQALIAKPDDIEDILLAGAAKARRIATPFIAELREAVGLRSLREPLKSAESGKKKAAKAARLVSFRDDDGSFRFRLLDAAGEQLLLSRAFADGKAAGAVSKRLLAGETADLRAEGNAFGLWLDGEAVAQSPAFADAAARDAAIERTREALAPQ | not soluble
DADAEFDIVIGNIEDIIMEDEFQHLQQSFMEKYYLEFDDSEENKLSYTPIFNEYIEILEKHLEQQLVERIPGFNMDAFTHSLKQHKDEVSGDILDMLLTFTDFMAFKEMFTDYRAEKEGRG | soluble
MRTFESVADLAAAAGEKVGQSDWVTITQEEVNLFADATGDHQWIHVDPERAAAGPFGTTIAHGFMTLALLPRLQHQMYTVKGVKLAINYGLNKVRFPAPVPVGSRVRATSSLVGVEDLGNGTVQATVSTTVEVEGSAKPACVAESIVRYVA | soluble
